PMC12460158, “Structural basis of fast N-type inactivation in Kv channels” (Nature, 2025)
Ends that are not written are not given here.

B1: full-length wild-type (WT) Shaker Kv channel, C-terminally mVenus tagged, tag removed (natural protein, Drosophila melanogaster, UniProt P08510 1-655, looked up)
chain: MAAVAGLYGLGEDRQHRKKQQQQQQHQKEQLEQKEEQKKIAERKLQLREQQLQRNSLDGYGSLPKLSSQDEEGGAGHGFGGGPQHFEPIPHDHDFCERVVINVSGLRFETQLRTLNQFPDTLLGDPARRLRYFDPLRNEYFFDRSRPSFDAILYYYQSGGRLRRPVNVPLDVFSEEIKFYELGDQAINKFREDEGFIKEEERPLPDNEKQRKVWLLFEYPESSQAARVVAIISVFVILLSIVIFCLETLPEFKHYKVFNTTTNGTKIEEDEVPDITDPFFLIETLCIIWFTFELTVRFLACPNKLNFCRDVMNVIDIIAIIPYFITLATVVAEEEDTLNLPKAPVSPQDKSSNQAMSLAILRVIRLVRVFRIFKLSRHSKGLQILGRTLKASMRELGLLIFFLFIGVVLFSSAVYFAEAGSENSFFKSIPDAFWWAVVTMTTVGYGDMTPVGVWGKIVGSLCAIAGVLTIALPVPVIVSNFNYFYHRETDQEEMQSQNFNHVTSCPYLPGTLGQHMKKSSLSESSSDMMDLDDGVESTPGLTETHPGRSAVAPFLGAQQQQQQPVASSLSMSIDKQLQHPLQQLTQTQLYQQQQQQQQQQQNGFKQQQQQTQQQLQQQQSHTINASAAAATSGSGSSGLTMRHNNALAVSIETDV
notes: Shaker Kv channel, Drosophila melanogaster, full-length gene; Residues of the TEV site may remain at the C terminus (surmise); also called C-terminally tagged WT Shaker; C-terminal mVenus-tagged Shaker; not shown: mVenus, C-terminal, cleaved; polyhistidine, C-terminal, cleaved
B2: GT Shaker Kv channel (N-terminally mVenus tagged Shaker after TEV cleavage, with additional Gly and Thr on the N terminus) (natural protein, Drosophila melanogaster)
chain: GTMAAVAGLYGLGEDRQHRKKQQQQQQHQKEQLEQKEEQKKIAERKLQLREQQLQRNSLDGYGSLPKLSSQDEEGGAGHGFGGGPQHFEPIPHDHDFCERVVINVSGLRFETQLRTLNQFPDTLLGDPARRLRYFDPLRNEYFFDRSRPSFDAILYYYQSGGRLRRPVNVPLDVFSEEIKFYELGDQAINKFREDEGFIKEEERPLPDNEKQRKVWLLFEYPESSQAARVVAIISVFVILLSIVIFCLETLPEFKHYKVFNTTTNGTKIEEDEVPDITDPFFLIETLCIIWFTFELTVRFLACPNKLNFCRDVMNVIDIIAIIPYFITLATVVAEEEDTLNLPKAPVSPQDKSSNQAMSLAILRVIRLVRVFRIFKLSRHSKGLQILGRTLKASMRELGLLIFFLFIGVVLFSSAVYFAEAGSENSFFKSIPDAFWWAVVTMTTVGYGDMTPVGVWGKIVGSLCAIAGVLTIALPVPVIVSNFNYFYHRETDQEEMQSQNFNHVTSCPYLPGTLGQHMKKSSLSESSSDMMDLDDGVESTPGLTETHPGRSAVAPFLGAQQQQQQPVASSLSMSIDKQLQHPLQQLTQTQLYQQQQQQQQQQQNGFKQQQQQTQQQLQQQQSHTINASAAAATSGSGSSGLTMRHNNALAVSIETDV
notes: two additional residues (Gly and Thr) left on the N terminus after removal of the mVenus tag with TEV protease, confirmed by mass spectrometry; Shaker Kv channel, Drosophila melanogaster, full-length gene; the N-terminal Met stands at position 3 of this construct; Purified by the N-terminal tag, so at least one N terminus is intact in each tetramer; other N termini may be truncated by …
B3: full-length E12K/D13K AcA-EI Shaker Kv channel (enhanced inactivation mutant, initiator Met removed, Ala2 acetylated) (natural protein, Drosophila melanogaster, UniProt P08510 2-655, looked up)
chain: AAVAGLYGLGKKRQHRKKQQQQQQHQKEQLEQKEEQKKIAERKLQLREQQLQRNSLDGYGSLPKLSSQDEEGGAGHGFGGGPQHFEPIPHDHDFCERVVINVSGLRFETQLRTLNQFPDTLLGDPARRLRYFDPLRNEYFFDRSRPSFDAILYYYQSGGRLRRPVNVPLDVFSEEIKFYELGDQAINKFREDEGFIKEEERPLPDNEKQRKVWLLFEYPESSQAARVVAIISVFVILLSIVIFCLETLPEFKHYKVFNTTTNGTKIEEDEVPDITDPFFLIETLCIIWFTFELTVRFLACPNKLNFCRDVMNVIDIIAIIPYFITLATVVAEEEDTLNLPKAPVSPQDKSSNQAMSLAILRVIRLVRVFRIFKLSRHSKGLQILGRTLKASMRELGLLIFFLFIGVVLFSSAVYFAEAGSENSFFKSIPDAFWWAVVTMTTVGYGDMTPVGVWGKIVGSLCAIAGVLTIALPVPVIVSNFNYFYHRETDQEEMQSQNFNHVTSCPYLPGTLGQHMKKSSLSESSSDMMDLDDGVESTPGLTETHPGRSAVAPFLGAQQQQQQPVASSLSMSIDKQLQHPLQQLTQTQLYQQQQQQQQQQQNGFKQQQQQTQQQLQQQQSHTINASAAAATSGSGSSGLTMRHNNALAVSIETDV
modifications: acetyl on the N-terminal Ala2 (initiator Met removed), by mass spectrometry
notes: Shaker Kv channel, Drosophila melanogaster; Residues of the TEV site may remain at the C terminus (surmise); not shown: mVenus, C-terminal, cleaved; polyhistidine, C-terminal, cleaved
B4: acetylated free N-terminal peptide of EI Shaker (Ac-AAVAGLYGLGKKRQHRKKQ) (peptide)
peptide: Ac-AAVAGLYGLGKKRQHRKKQ
notes: N terminus of the Shaker Kv channel without the initiator Met, with the E12K and D13K changes of EI Shaker; molecular weight 2,151 Da; also called additional N-terminal peptide; source: synthetic peptide (GenScript)

Experiments:
[1] = target: the molecule itself; experiment: cryo-EM structure; channel in MSP1E3D1 lipid nanodiscs (POPC:POPG:POPE 3:1:1), 20 mM Tris pH 7.5, 4 mM KCl, 46 mM NaCl; C4 refinement and focused classification in C1
[2] = target: B3; experiment: cryo-EM structure; AcA-EI Shaker in MSP1E3D1 lipid nanodiscs, 4 mM KCl, 46 mM NaCl, incubated with 1 mM free acetylated N-terminal peptide for 30 min before grid preparation; C1; details: both partners purified

Row | Binder | binding result [1] | binding result [2]
1 | B1 | binds | –
2 | B2 | binds | –
3 | B3 | binds | –
4 | B4 | – | binds
